Reference: patent US20240254246A1 (PROMETHEUS BIOSCIENCES, published 2024)
Where two headings read alike, the source gives them in different places. Each block holds one binder with its values, some of them ahead of it.

Key:
[1] = target: T1, cynomolgus CD30L expressed on HEK293 cells (cynomolgus, UniProt A0A7N9CVX7 1-234); experiment: flow cytometry, Cell Binding to HEK293-cyCD30L (MFI)
T1 construct: whole, on cells; also called HEK293-cyCD30L; HEK-cyCD30L
T1 sequence: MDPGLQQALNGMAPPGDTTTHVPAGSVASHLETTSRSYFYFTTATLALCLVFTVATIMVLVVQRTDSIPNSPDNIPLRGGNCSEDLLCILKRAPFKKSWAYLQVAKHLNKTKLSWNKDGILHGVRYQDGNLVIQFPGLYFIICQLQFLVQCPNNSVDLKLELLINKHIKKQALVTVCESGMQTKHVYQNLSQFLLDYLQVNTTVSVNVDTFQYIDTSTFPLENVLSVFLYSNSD

[2] = target: T2, human CD30L expressed on B16 cells (human, UniProt P32971 1-234); experiment: flow cytometry, binding to B16-rhCD30L cells
T2 construct: whole, on cells; B16 cell line transfected to express human CD30L; also called B16-huCD30L; B16-rhCD30L
T2 sequence (looked up): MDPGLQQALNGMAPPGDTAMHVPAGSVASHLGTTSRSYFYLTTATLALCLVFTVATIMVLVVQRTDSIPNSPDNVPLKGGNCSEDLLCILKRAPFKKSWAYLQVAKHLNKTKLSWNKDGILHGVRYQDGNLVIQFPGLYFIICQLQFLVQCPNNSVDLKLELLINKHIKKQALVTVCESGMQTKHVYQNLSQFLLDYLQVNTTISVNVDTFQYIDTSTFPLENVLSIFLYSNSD

recombinant human CD30L [3] = target: T3, recombinant human CD30L (human, UniProt P32971 63-234); experiment: ELISA, Binding to CD30L, immobilized human CD30L (Absorbance 450 nm)
T3 construct: Purified recombinant protein of ELISA, BLI, Carterra and KinExA; also called rhCD30L; huCD30L
T3 sequence (looked up): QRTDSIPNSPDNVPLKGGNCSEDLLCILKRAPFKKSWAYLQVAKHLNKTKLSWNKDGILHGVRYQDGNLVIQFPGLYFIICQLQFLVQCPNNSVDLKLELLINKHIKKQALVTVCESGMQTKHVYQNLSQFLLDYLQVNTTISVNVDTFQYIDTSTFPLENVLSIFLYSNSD

[4] = target: T2, human CD30L expressed on B16 cells; experiment: flow cytometry, blocking of CD30-Fc on B16-huCD30L cells; competitor CD30-Fc
[5] = target: T1, cynomolgus CD30L expressed on HEK293 …; experiment: flow cytometry, blocking of CD30-Fc on HEK293-cyCD30L cells; competitor CD30-Fc
[6] = target: T4, recombinant cynomolgus CD30L (cynomolgus, UniProt A0A7N9CVX7 63-234); experiment: ELISA, Binding to CD30L, immobilized cyno CD30L (Absorbance 450 nm)
T4 construct: Purified recombinant protein; also called rcyCD30L; cyno CD30L
T4 sequence: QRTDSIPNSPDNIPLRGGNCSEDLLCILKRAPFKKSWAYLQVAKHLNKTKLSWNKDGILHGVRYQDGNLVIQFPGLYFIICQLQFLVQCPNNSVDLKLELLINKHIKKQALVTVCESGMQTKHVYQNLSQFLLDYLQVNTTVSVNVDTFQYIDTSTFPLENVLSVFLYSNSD

recombinant human CD30L [7] = target: T3, recombinant human CD30L; experiment: ELISA, binding to purified rhCD30L
[8] = target: T4, recombinant cynomolgus CD30L; experiment: ELISA, binding to purified rcyCD30L
[9] = target: T2, human CD30L expressed on B16 cells; experiment: cell-based or functional assay
[10] = target: T1, cynomolgus CD30L expressed on HEK293 …; experiment: cell-based or functional assay
recombinant human CD30L [11] = target: T3, recombinant human CD30L; experiment: ELISA, blocking of CD30-Fc binding to huCD30L (OD 450 nm)
[12] = target: T2, human CD30L expressed on B16 cells; experiment: flow cytometry, B16-huCD30L/CD30-Fc Neutralization: blocking of CD30-Fc binding to B16-huCD30L cells
recombinant human CD30L [13] = target: T3, recombinant human CD30L; experiment: ELISA, blocking of CD30-Fc on huCD30L; competitor CD30-Fc
[14] = target: T1, cynomolgus CD30L expressed on HEK293 …; experiment: flow cytometry, HEK293-cyCD30L/CD30-Fc Neutralization: blocking of CD30-Fc binding to HEK293-cyCD30L cells
[15] = target: T1, cynomolgus CD30L expressed on HEK293 …; experiment: flow cytometry, binding to HEK293-cyCD30L cells
[16] = target: T4, recombinant cynomolgus CD30L; experiment: ELISA, blocking of CD30-Fc on rcyCD30L; competitor CD30-Fc
recombinant human CD30L [17] = target: T3, recombinant human CD30L; experiment: ELISA, binding to rhCD30L (OD 450 nm)
recombinant human CD30L [18] = target: T3, recombinant human CD30L; experiment: ELISA, Neutralization of CD30-Fc binding to immobilized human CD30L (Absorbance 450 nm)
[19] = target: T2, human CD30L expressed on B16 cells; experiment: cell-based or functional assay; remark: listed apart in the source
[20] = target: T2, human CD30L expressed on B16 cells; experiment: cell-based or functional assay; remark: listed apart in the source
[21] = target: T4, recombinant cynomolgus CD30L; experiment: ELISA, Neutralization of CD30-Fc binding to immobilized cyno CD30L (Absorbance 450 nm)
[22] = target: T2, human CD30L expressed on B16 cells; experiment: flow cytometry on B16 cells expressing hCD30L
recombinant human CD30L [23] = target: T3, recombinant human CD30L; experiment: BLI, CD30 association to CD30L held by captured IgG; competitor rhCD30
Method: Briefly, individual anti-human biosensors were loaded with purified IgG (normalized to 10 μg/mL) and a baseline was measured for each biosensor. Biosensors were saturated with biotin and with polyclonal hulgG and a baseline was measured. Loaded biosensors were then allowed to bind CD30L and the association rate was measured for the binding. Biosensors were moved to buffer wells to measure the dissociation rate.

[24] = target: T2, human CD30L expressed on B16 cells; experiment: flow cytometry, binding to B16 cells expressing human CD30L (MFI)
recombinant human CD30L [25] = target: T3, recombinant human CD30L; experiment: ELISA, binding to rhCD30L (OD 450 nm); remark: listed apart in the source
[26] = target: T2, human CD30L expressed on B16 cells; experiment: cell-based or functional assay; remark: listed apart in the source
recombinant human CD30L [27] = target: T3, recombinant human CD30L; experiment: recombinant blocking ELISA; competitor CD30
recombinant mouse CD30L = target: T5, recombinant mouse CD30L (mouse, UniProt P32972 68-239); experiment: ELISA on recombinant protein
T5 construct: Purified recombinant protein; also called rmCD30L
T5 sequence (looked up): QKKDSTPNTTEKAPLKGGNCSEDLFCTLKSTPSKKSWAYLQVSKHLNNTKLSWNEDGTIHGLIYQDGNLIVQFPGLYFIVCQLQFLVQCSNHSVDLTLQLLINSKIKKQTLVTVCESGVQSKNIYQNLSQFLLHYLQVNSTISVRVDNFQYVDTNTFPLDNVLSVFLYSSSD

recombinant human CD30L [28] = target: T3, recombinant human CD30L; experiment: ELISA on recombinant protein
[29] = target: T4, recombinant cynomolgus CD30L; experiment: ELISA on recombinant protein
[30] = target: T4, recombinant cynomolgus CD30L; experiment: KinExA, calculated as KD x kon
Method: (§1) To more precisely define and compare the binding affinities (dissociation equilibrium constant, KD), the association rate constant (on rate, kₒₙ), and the dissociation rate constant (off rate, koff), the kinetic exclusion assay (KinExA) was performed. KinExA measures the equilibrium binding affinity and kinetics between unmodified binding molecules in solution. For affinity analysis, the equilibrium dissociation constant, KD, is experimentally determined and reflects the strength of the binding interaction. The rate of association, kₒₙ, is also experimentally determined, while the rate of dissociation, koff, is calculated based on the equation: koff=Kd×kₒₙ.
A KD analysis requires immobilization of one interaction partner to a solid phase which is then used as a probe to capture the other interaction partner, the constant binding partner (Fab). For each experiment, CD30L antigen is titrated in a background of the Fab and allowed to reach equilibrium. The solutions are then briefly exposed to the solid phase and a portion of free Fab is captured. The captured Fab is then labeled with a fluorescent secondary molecule. The short contact time with the solid phase is less than the time needed for dissociation of the pre-formed complex in solution, thus competition between the solution and the solid phase titrated binding partner is kinetically excluded.

[31] = target: T4, recombinant cynomolgus CD30L; experiment: KinExA, Fab in solution
From the text: (§2) For each experiment, CD30L antigen is titrated in a background of the Fab and allowed to reach equilibrium. The solutions are then briefly exposed to the solid phase and a portion of free Fab is captured. The captured Fab is then labeled with a fluorescent secondary molecule. The short contact time with the solid phase is less than the time needed for dissociation of the pre-formed complex in solution, thus competition between the solution and the solid phase titrated binding partner is kinetically excluded.
(§3) The signals generated from the captured Fab, which are directly proportional to the concentration of free Fab in the equilibrated samples, are used to determine the KD value. The KinExA Pro software performs a least squares analysis on the measured data to fit optimal solution for the KD and the activity of the Fab to a curve representative of a 1:1 reversible bi-molecular interaction.

recombinant human CD30L [32] = target: T3, recombinant human CD30L; experiment: KinExA, calculated as KD x kon
Method: as §1

recombinant human CD30L [33] = target: T3, recombinant human CD30L; experiment: KinExA, Fab in solution
From the text: as §2, §3

[34] = target: T2, human CD30L expressed on B16 cells; experiment: flow cytometry, binding to B16 cells expressing human CD30L (MFI); remark: listed apart in the source
recombinant human CD30L [35] = target: T3, recombinant human CD30L; experiment: ELISA, binding to rhCD30L (OD 450 nm); remark: listed apart in the source

B1: anti-CD30L antibody clone 2 germlined (antibody, V domains shown)
VH: EVQLVESGGGLVQPGRSLRLSCAASGFNFDDYAMHWVRQAPGKGLEWVSGISWRSGNIGYADSVKGRFTISRDNAKNSLYLQMNSLRAEDTALYYCAKDKGIGFNWNYEGFDYWGQGTLVTVSS
VL: DIQMTQSPSSLSASVGDRVTITCRASQGISNHLAWFQQKPGKAPKSLIYAASSLQSGVPSRFSGSGSGTDFTLTISSLQPEDFATYYCQQYVTYPLTFGGGTKVEIK
notes: also called germlined clone 2
EC50 (read off the curve) [1]: ~300 pM | EC50 [2]: 640 pM | EC50 (read off the curve) (recombinant human CD30L [3]): ~30 pM | IC50 [4]: 670 pM | IC50 [5]: 340 pM | EC50 (read off the curve) [6]: ~30 pM | EC50 (recombinant human CD30L [7]): 30 pM | EC50 [8]: 50 pM | Inhibition of IL-8 release in a dual cell assay (B16-huCD30L cells + K299 cells) IC50 [9]: 890 pM | Inhibition of IL-8 release in a dual cell assay (HEK293-cyCD30L cells + K299 cells) IC50 [10]: 410 pM | IC50 (read off the curve) (recombinant human CD30L [11]): ~2000 pM | IC50 (read off the curve) [12]: ~400 pM | IC50 (recombinant human CD30L [13]): 1920 pM | IC50 (read off the curve) [14]: ~300 pM | EC50 [15]: 330 pM | IC50 [16]: 1530 pM | EC50 (read off the curve) (recombinant human CD30L [17]): ~100 pM | IC50 (read off the curve) (recombinant human CD30L [18]): ~2000 pM | IC50 (read off the curve), IL-8 release, Dual Assay K299 + B16-huCD30L [19]: ~1000 pM | IC50 (read off the curve), IL-8 release, dual cell assay (B16-huCD30L cells + K299 cells) [20]: ~1000 pM | IC50 (read off the curve) [21]: ~2000 pM

B2: anti-CD30L antibody clone 80 (antibody, V domains shown)
VH: EVQLVESGGGLVQPGGSLRLSCEVSGFTFSSYDMHWVRQVTGTGLEWVSSIGIGGDTYYPGSVKGRFTISRENAKNSLYLQMNSLRGGDTGVYYCARGEWDLLWYFMDVWGKGTTVTVSS
VL: DIQMTQSPSSLSASIGDRVTITCRASQGISSWLAWYQQKPGKAPKLLIYAASSLQSGVPSRFSGSGSGTDFTLTISSLQPEDFATYYCQQANSFPLTFGGGTKVEIK
notes: purified recombinant IgG (held by anti-human biosensors); mouse strain #1
hCD30L B16 (+) FLOW [22]: 8.3e+06 | rhCD30L:rhCD30 Blocking (recombinant human CD30L [23]): 0.0635 | EC50 (read off the curve) [24]: ~1000 pM | EC50 (read off the curve) (recombinant human CD30L [25]): ~200 pM | IC50 (read off the curve), IL-8 release, dual cell assay (B16-huCD30L cells + K299 cells) [26]: ~2000 pM | IC50 (recombinant human CD30L [27]): 2740 pM | rmCD30L (+) ELISA (recombinant mouse CD30L): 0.048 | rhCD30L (+) ELISA (recombinant human CD30L [28]): 0.941 | rcyCD30L (+) ELISA [29]: 0.475

Other lines, results leading:

koff [30]: 0.000378 s⁻¹ | Kd [31]: 122 pM | kon [31]: 3.1e+06 M⁻¹ s⁻¹ | koff (recombinant human CD30L [32]): 0.000141 s⁻¹ | Kd (recombinant human CD30L [33]): 90.5 pM | kon (recombinant human CD30L [33]): 1.55e+06 M⁻¹ s⁻¹
B3: Fab of clone 2 germlined (Fab, V domains shown)
VH: EVQLVESGGGLVQPGRSLRLSCAASGFNFDDYAMHWVRQAPGKGLEWVSGISWRSGNIGYADSVKGRFTISRDNAKNSLYLQMNSLRAEDTALYYCAKDKGIGFNWNYEGFDYWGQGTLVTVSS
VL: DIQMTQSPSSLSASVGDRVTITCRASQGISNHLAWFQQKPGKAPKSLIYAASSLQSGVPSRFSGSGSGTDFTLTISSLQPEDFATYYCQQYVTYPLTFGGGTKVEIK
notes: Fab; also called Fab of a representative anti-CD30L, clone 2 germlined

hCD30L B16 (+) FLOW [22]: 8.42e+06 | EC50 (read off the curve) [34]: ~3000 pM | rhCD30L:rhCD30 Blocking (recombinant human CD30L [23]): 0.071 | EC50 (read off the curve) (recombinant human CD30L [35]): ~100 pM | IC50 (recombinant human CD30L [27]): 3510 pM | rmCD30L (+) ELISA (recombinant mouse CD30L): 0.048 | rhCD30L (+) ELISA (recombinant human CD30L [28]): 1.41 | rcyCD30L (+) ELISA [29]: 0.982
B4: anti-CD30L antibody clone 82 (antibody, V domains shown)
VH: EVQLVESGGGLVQPGGSLRLSCAVSGITFSNAWMSWVRQAPGKGLEWVGRIKSKTYGGTTDYAAPVKGRFIISRDDSKDTLYLQMNSLKTEDTAIYYCTTDPWNYVNYNYFMDVWGKGTTVTVSS
VL: DIQMTQSPSSLSASVGDRVTITCRASQDIRNYLAWYQQKPGKITHLLVYAASTLQSGVPSRFSGSGSGTDFTLTINSLQPEDVATYYCQNYFSVPLTFGGGTKVEIK
notes: as for B2
